Data from IntAct's records for PubMed 29892012.

B1: Ribosome assembly protein METTL17, mitochondrial (Homo sapiens), Q9H7H0 (parent)
chain: MAAALKCLLTLGRWCPGLGVAPQARALAALVPGVTQVDNKSGFLQKRPHRQHPGILKLPHVRLPQALANGAQLLLLGSAGPTMENQVQTLTSYLWSRHLPVEPEELQRRARHLEKKFLENPDLSQTEEKLRGAVLHALRKTTYHWQELSYTEGLSLVYMAARLDGGFAAVSRAFHEIRARNPAFQPQTLMDFGSGTGSVTWAAHSIWGQSLREYMCVDRSAAMLVLAEKLLKGGSESGEPYIPGVFFRQFLPVSPKVQFDVVVSAFSLSELPSKADRTEVVQTLWRKTGHFLVLVENGTKAGHSLLMDARDLVLKGKEKSPLDPRPGFVFAPCPHELPCPQLTNLACSFSQAYHPIPFSWNKKPKEEKFSMVILARGSPEEAHRWPRITQPVLKRPRHVHCHLCCPDGHMQHAVLTARRHGRDLYRCARVSSWGDLLPVLTPSAFPPSTAQDPSES
partner: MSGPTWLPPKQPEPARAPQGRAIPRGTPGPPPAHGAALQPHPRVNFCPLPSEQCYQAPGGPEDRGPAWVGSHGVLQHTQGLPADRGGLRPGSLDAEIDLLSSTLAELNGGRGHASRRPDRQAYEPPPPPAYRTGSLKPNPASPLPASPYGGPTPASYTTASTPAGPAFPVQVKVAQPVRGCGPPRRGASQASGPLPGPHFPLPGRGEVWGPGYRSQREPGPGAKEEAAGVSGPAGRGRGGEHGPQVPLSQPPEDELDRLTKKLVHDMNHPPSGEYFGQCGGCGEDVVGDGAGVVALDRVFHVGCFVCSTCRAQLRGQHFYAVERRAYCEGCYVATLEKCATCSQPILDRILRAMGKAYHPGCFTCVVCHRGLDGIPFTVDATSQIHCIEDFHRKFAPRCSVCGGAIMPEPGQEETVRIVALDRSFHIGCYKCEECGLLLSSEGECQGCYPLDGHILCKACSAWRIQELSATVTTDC
B2: Genetic suppressor element 1 (Homo sapiens), Q14687 (parent)
chain: MKGMSHEPKSPSLGMLSTATRTTATVNPLTPSPLNGALVPSGSPATSSALSAQAAPSSSFAAALRKLAKQAEEPRGSSLSSESSPVSSPATNHSSPASTPKRVPMGPIIVPPGGHSVPSTPPVVTIAPTKTVNGVWRSESRQDAGSRSSSGGRERLIVEPPLPQEKAGGPAIPSHLLSTPYPFGLSPSSVVQDSRFPPLNLQRPVHHVVPPSTVTEDYLRSFRPYHTTDDLRMSSLPPLGLDPATAAAYYHPSYLAPHPFPHPAFRMDDSYCLSALRSPFYPIPTPGSLPPLHPSAMHLHLSGVRYPPELSHSSLAALHSERMSGLSAERLQMDEELRREREREREREREREADREREKEREREREKEREQEKEREREKERERELERQREQRAREKELLAAKALEPSFLPVAELHGLRGHATEERGKPSEQLTPTRAEKLKDAGLQAPKPVQHPLHPVPTPHHTVPSLISNHGIFSLPSSSAATALLIQRTNEEEKWLARQRRLRQEKEDRQSQVSEFRQQVLEQHLDMGRPPVPAEAEHRPESTTRPGPNRHEPGGRDPPQHFGGPPPLISPKPQLHAAPTALWNPVSLMDNTLETRRAESHSLHSHPAAFEPSRQAAVPLVKVERVFCPEKAEEGPRKREPAPLDKYQPPPPPPREGGSLEHQPFLPGPGPFLAELEKSTQTILGQQRASLPQAATFGELSGPLKPGSPYRPPVPRAPDPAYIYDEFLQQRRRLVSKLDLEERRRREAQEKGYYYDLDDSYDESDEEEVRAHLRCVAEQPPLKLDTSSEKLEFLQLFGLTTQQQKEELVAQKRRKRRRMLRERSPSPPTIQSKRQTPSPRLALSTRYSPDEMNNSPNFEEKKKFLTIFNLTHISAEKRKDKERLVEMLRAMKQKALSAAVADSLTNSPRDSPAVSLSEPATQQASLDVEKPVGVAASLSDIPKAAEPGKLEQVRPQELSRVQELAPASGEKARLSEAPGGKKSLSMLHYIRGAAPKDIPVPLSHSTNGKSKPWEPFVAEEFAHQFHESVLQSTQKALQKHKGSVAVLSAEQNHKVDTSVHYNIPELQSSSRAPPPQHNGQQEPPTARKGPPTQELDRDSEEEEEEDDEDGEDEEEVPKRKWQGIEAVFEAYQEHIEEQNLERQVLQTQCRRLEARHYSLSLTAEQLSHSVAELRSQKQKMVSERERLQAELDHLRKCLALPAMHWPRGYLKGYPR
partner: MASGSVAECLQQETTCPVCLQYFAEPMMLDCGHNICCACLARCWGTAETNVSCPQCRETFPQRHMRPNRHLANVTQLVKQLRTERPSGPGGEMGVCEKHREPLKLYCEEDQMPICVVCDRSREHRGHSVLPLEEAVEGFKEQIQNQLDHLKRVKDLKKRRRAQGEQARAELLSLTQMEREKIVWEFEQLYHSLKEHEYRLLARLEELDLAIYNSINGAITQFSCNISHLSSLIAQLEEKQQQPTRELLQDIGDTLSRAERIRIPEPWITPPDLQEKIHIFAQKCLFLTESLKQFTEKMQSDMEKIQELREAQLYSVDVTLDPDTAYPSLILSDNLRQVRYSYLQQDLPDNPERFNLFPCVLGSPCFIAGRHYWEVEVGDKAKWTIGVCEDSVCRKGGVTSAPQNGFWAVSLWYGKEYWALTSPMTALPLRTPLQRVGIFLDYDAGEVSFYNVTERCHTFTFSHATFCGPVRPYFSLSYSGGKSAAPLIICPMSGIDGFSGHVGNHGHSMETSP
B3: Protein VAC14 homolog (Homo sapiens), Q08AM6 (parent)
chain: MNPEKDFAPLTPNIVRALNDKLYEKRKVAALEIEKLVREFVAQNNTVQIKHVIQTLSQEFALSQHPHSRKGGLIGLAACSIALGKDSGLYLKELIEPVLTCFNDADSRLRYYACEALYNIVKVARGAVLPHFNVLFDGLSKLAADPDPNVKSGSELLDRLLKDIVTESNKFDLVSFIPLLRERIYSNNQYARQFIISWILVLESVPDINLLDYLPEILDGLFQILGDNGKEIRKMCEVVLGEFLKEIKKNPSSVKFAEMANILVIHCQTTDDLIQLTAMCWMREFIQLAGRVMLPYSSGILTAVLPCLAYDDRKKSIKEVANVCNQSLMKLVTPEDDELDELRPGQRQAEPTPDDALPKQEGTASGGPDGSCDSSFSSGISVFTAASTERAPVTLHLDGIVQVLNCHLSDTAIGMMTRIAVLKWLYHLYIKTPRKMFRHTDSLFPILLQTLSDESDEVILKDLEVLAEIASSPAGQTDDPGPLDGPDLQASHSELQVPTPGRAGLLNTSGTKGLECSPSTPTMNSYFYKFMINLLKRFSSERKLLEVRGPFIIRQLCLLLNAENIFHSMADILLREEDLKFASTMVHALNTILLTSTELFQLRNQLKDLKTLESQNLFCCLYRSWCHNPVTTVSLCFLTQNYRHAYDLIQKFGDLEVTVDFLAEVDKLVQLIECPIFTYLRLQLLDVKNNPYLIKALYGLLMLLPQSSAFQLLSHRLQCVPNPELLQTEDSLKAAPKSQKADSPSIDYAELLQHFEKVQNKHLEVRHQRSGRGDHLDRRVVL
partner: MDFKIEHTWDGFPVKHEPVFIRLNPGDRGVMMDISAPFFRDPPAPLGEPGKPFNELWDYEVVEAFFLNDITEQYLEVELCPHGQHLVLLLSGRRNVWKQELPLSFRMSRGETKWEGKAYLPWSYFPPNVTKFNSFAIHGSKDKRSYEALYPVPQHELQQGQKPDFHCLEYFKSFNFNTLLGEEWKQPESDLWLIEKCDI
B4: Ligand of Numb protein X 2 (Homo sapiens), Q8N448 (parent)
chain: MGTTSDEMVSVEQTSSSSLNPLCFECGQQHWTRENHLYNYQNEVDDDLVCHICLQPLLQPLDTPCGHTFCYKCLRNFLQEKDFCPLDRKRLHFKLCKKSSILVHKLLDKLLVLCPFSSVCKDVMQRCDLEAHLKNRCPGASHRRVALERRKTSRTQAEIENENGPTLLDPAGTLSPEADCLGTGAVPVERHLTSASLSTWSEEPGLDNPAFEESAGADTTQQPLSLPEGEITTIEIHRSNPYIQLGISIVGGNETPLINIVIQEVYRDGVIARDGRLLAGDQILQVNNYNISNVSHNYARAVLSQPCNTLHLTVLRERRFGNRAHNHSDSNSPREEIFQVALHKRDSGEQLGIKLVRRTDEPGVFILDLLEGGLAAQDGRLSSNDRVLAINGHDLKYGTPELAAQIIQASGERVNLTIARPGKPQPGNTIREAGNHSSSSQHHTPPPYYSRPSSHKDLTQCVTCQEKHITVKKEPHESLGMTVAGGRGSKSGELPIFVTSVPPHGCLARDGRIKRGDVLLNINGIDLTNLSHSEAVAMLKASAASPAVALKALEVQIVEEATQNAEEQPSTFSENEYDASWSPSWVMWLGLPSTLHSCHDIVLRRSYLGSWGFSIVGGYEENHTNQPFFIKTIVLGTPAYYDGRLKCGDMIVAVNGLSTVGMSHSALVPMLKEQRNKVTLTVICWPGSLV
partner: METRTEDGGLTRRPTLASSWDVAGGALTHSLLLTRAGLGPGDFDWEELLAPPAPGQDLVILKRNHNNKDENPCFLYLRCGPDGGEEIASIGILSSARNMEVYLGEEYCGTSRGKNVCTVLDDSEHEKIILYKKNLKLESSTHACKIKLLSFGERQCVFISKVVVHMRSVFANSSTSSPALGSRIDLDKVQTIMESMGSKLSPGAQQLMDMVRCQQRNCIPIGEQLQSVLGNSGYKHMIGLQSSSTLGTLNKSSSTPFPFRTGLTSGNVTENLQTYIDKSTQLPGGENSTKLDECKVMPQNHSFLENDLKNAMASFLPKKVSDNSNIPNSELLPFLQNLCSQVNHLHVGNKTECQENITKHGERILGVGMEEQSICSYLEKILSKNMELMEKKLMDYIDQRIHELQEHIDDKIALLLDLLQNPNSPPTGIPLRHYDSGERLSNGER
B5: Kinetochore protein NDC80 homolog (Homo sapiens), O14777 (parent)
chain: MKRSSVSSGGAGRLSMQELRSQDVNKQGLYTPQTKEKPTFGKLSINKPTSERKVSLFGKRTSGHGSRNSQLGIFSSSEKIKDPRPLNDKAFIQQCIRQLCEFLTENGYAHNVSMKSLQAPSVKDFLKIFTFLYGFLCPSYELPDTKFEEEVPRIFKDLGYPFALSKSSMYTVGAPHTWPHIVAALVWLIDCIKIHTAMKESSPLFDDGQPWGEETEDGIMHNKLFLDYTIKCYESFMSGADSFDEMNAELQSKLKDLFNVDAFKLESLEAKNRALNEQIARLEQEREKEPNRLESLRKLKASLQGDVQKYQAYMSNLESHSAILDQKLNGLNEEIARVELECETIKQENTRLQNIIDNQKYSVADIERINHERNELQQTINKLTKDLEAEQQKLWNEELKYARGKEAIETQLAEYHKLARKLKLIPKGAENSKGYDFEIKFNPEAGANCLVKYRAQVYVPLKELLNETEEEINKALNKKMGLEDTLEQLNAMITESKRSVRTLKEEVQKLDDLYQQKIKEAEEEDEKCASELESLEKHKHLLESTVNQGLSEAMNELDAVQREYQLVVQTTTEERRKVGNNLQRLLEMVATHVGSVEKHLEEQIAKVDREYEECMSEDLSENIKEIRDKYEKKATLIKSSEE
partner: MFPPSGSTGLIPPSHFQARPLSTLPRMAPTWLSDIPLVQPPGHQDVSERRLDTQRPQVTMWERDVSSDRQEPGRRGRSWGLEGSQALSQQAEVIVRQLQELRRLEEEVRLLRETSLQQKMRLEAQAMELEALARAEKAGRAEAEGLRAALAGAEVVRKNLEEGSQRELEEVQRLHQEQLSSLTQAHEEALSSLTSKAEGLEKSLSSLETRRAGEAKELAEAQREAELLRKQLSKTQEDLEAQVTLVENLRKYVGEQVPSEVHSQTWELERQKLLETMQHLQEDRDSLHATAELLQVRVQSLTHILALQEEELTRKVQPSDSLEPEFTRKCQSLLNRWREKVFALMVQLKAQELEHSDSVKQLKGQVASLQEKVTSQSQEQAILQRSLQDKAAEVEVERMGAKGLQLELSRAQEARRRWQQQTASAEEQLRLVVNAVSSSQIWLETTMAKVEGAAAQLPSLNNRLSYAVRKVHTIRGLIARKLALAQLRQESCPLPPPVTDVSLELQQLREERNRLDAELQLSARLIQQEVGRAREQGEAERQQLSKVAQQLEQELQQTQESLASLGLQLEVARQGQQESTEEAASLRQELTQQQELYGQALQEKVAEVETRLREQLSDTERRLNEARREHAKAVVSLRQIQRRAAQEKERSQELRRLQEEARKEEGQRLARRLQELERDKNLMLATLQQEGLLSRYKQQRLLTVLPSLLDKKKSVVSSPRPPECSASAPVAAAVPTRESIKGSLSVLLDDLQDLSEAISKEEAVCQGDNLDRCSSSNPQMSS
B6: Ribosome assembly protein METTL17, mitochondrial (Homo sapiens), Q9H7H0 (parent)
chain: B1 chain
partner: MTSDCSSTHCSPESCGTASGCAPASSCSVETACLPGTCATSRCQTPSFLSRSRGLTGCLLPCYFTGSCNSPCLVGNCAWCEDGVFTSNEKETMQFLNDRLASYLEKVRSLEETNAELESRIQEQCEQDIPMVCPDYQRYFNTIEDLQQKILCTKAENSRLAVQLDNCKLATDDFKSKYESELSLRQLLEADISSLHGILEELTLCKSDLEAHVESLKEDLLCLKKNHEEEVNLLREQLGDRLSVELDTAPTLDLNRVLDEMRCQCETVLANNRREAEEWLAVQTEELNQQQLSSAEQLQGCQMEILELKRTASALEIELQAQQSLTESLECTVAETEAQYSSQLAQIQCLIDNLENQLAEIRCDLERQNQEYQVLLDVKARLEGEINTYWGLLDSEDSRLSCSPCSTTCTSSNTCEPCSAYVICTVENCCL

Variants of: B1
Settings: with trip6_human TRIP6, Q15654

effect of a mutation on the interaction	Variant
with no effect	R212H

Variants of: B2
Settings: with tri27_human TRIM27, P14373

effect of a mutation on the interaction	Variant
with no effect	R503Q

Variants of: B2
Settings: with tri27_human TRIM27, P14373
Remark: another data set of the same source

effect of a mutation on the interaction	Variant
with no effect	E368K

Variants of: B3
Settings: with cd033_human C4orf33, Q8N1A6

effect of a mutation on the interaction	Variant
with no effect	A127S

Variants of: B4
Settings: with paat_human PAAT

effect of a mutation on the interaction	Variant
with no effect	P669A

Variants of: B5
Settings: with cchcr_human CCHCR1, Q8TD31

Variant	effect of a mutation on the interaction
K288E	with no effect

Variants of: B6
Settings: with KRT40, Q6A162

effect of a mutation on the interaction	Variant
with no effect	R212H
